The record followed here is PMC7116727.

The assay addresses S2 component of the furin-cleaved SARS-CoV-2 spike ectodomain ('2P' mutant) (SARS-CoV-2) (UniProt P0DTC2). Put plainly: cryo-EM structure.

As usually defined, the stoichiometry N is the number of molecules, sites or subunits per partner or assembly. “S2 component of the furin-cleaved SARS-CoV-2 spike ectodomain ('2P' mutant) (from UniProt P0DTC2) (domain or fragment)” showed a stoichiometry N of 3.
